Measured values from US20210221882A1 (Sanofi, published 2021).
Substitutions are numbered along the chain they refer to.

Columns and labels:
Experiment in all cases: cell-based or functional assay
Recombinant human IL-4 [1] = target: T1, Recombinant human IL-4 (human, UniProt P05112 25-153)
T1 sequence (looked up): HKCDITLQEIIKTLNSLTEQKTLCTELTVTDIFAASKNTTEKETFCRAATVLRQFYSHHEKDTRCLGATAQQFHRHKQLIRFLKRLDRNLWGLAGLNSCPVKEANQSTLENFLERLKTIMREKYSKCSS

cynomolgus monkey IL-4 = target: T2, cynomolgus monkey IL-4 (cynomolgus monkey, UniProt P79339 25-153, limits assumed)
T2 sequence (looked up): T1 sequence (looked up) with E26K, V29I, F33L

Recombinant human IL-4 [2] = target: T1, Recombinant human IL-4; remark: listed apart in the source
Recombinant human IL-4 [3] = target: T1, Recombinant human IL-4; remark: listed apart in the source

B1: huTBTI3_2_1 (bispecific antibody)
VH: EVQLKESGPGLVAPGGSLSITCTVSGFSLTDSSINWVRQPPGKGLEWLGMIWGDGRIDYADALKSRLSISKDSSKSQVFLEMTSLRTDDTATYYCARDGYFPYAMDFWGQGTSVTVSSGGGGSGGGGSQVQLQQSGPELVKPGASVKISCKASGYSFTSYWIHWIKQRPGQGLEWIGMIDPSDGETRLNQRFQGRATLTVDESTSTAYMQLRSPTSEDSAVYYCTRLKEYGNYDSFYFDVWGAGTLVTVSS
VL: DIVLTQSPASLAVSLGQRATISCRASESVDSYGQSYMHWYQQKAGQPPKLLIYLASNLESGVPARFSGSGSRTDFTLTIDPVQAEDAATYYCQQNAEDSRTFGGGTKLEIKGGGGSGGGGSDIQMTQSPASLSVSVGDTITLTCHASQNIDVWLSWFQQKPGNIPKLLIYKASNLHTGVPSRFSGSGSGTGFTLTISSLQPEDIATYYCQQAHSYPFTFGGGTKLEIK
Recombinant human IL-4 [1]
  IC50, IL-4/IL-13-stimulated IL-6 release from LL97A IPF lung fibroblasts (combination of 15 ng/ml rhIL-13 plus 5 ng/ml rhIL-4): 7.8 nM
  IC50, IL-4/IL-13-stimulated eotaxin release from LL97A IPF lung fibroblasts (combination of 15 ng/ml rhIL-13 plus 5 ng/ml rhIL-4): 3.8 nM
  IC50, IL-4 and IL-13 induced LOX gene expression in IPF pulmonary fibroblasts (Taqman): 3 to 6 nM
Cynomolgus monkey IL-4
  Mean IC50, inhibition of TF-1 cell proliferation induced by cynomolgus IL-4: 0.53 nM
Recombinant human IL-4 [2]
  Mean IC50, inhibition of TF-1 cell proliferation induced by human IL-4: 2.03 nM
Recombinant human IL-4 [3]
  IC50, inhibition of IL-4-induced Stat6 phosphorylation in human blood monocytes, donor 217: 0.78 nM
  IC50, inhibition of IL-4-induced Stat6 phosphorylation in human blood monocytes, donor 229: 0.73 nM
  IC50, inhibition of IL-4-induced Stat6 phosphorylation in human blood monocytes, donor 245: 1.32 nM
